{"source": "the RNAGym collection of RNA variant scans (doi:10.7554/elife.90254)", "parents": {"B1": {"name": "LINE1-mini (parent)", "chain": "GGCAGAGCUCAACACAGCGUGGCAAAGUGGCUGUGGCUAGACUGCC"}}}
{"variants_of": "B1", "test": "self-cleavage, relative activity (ratio to wild type); higher = more cleavage; in vitro, sequencing; the parent is a self-cleaving ribozyme"}
{"variant": "GGCAGAGCUCACCACAGCGUGGCAAAGUGGCUGUGGCUACACUGCC", "note": "[A12C G40C]", "self-cleavage": 0.03}
{"variant": "GGCAGAGCUCAACACAGCGGGGCAAAGUGGCUGUGGCUGGACUGCC", "note": "[U20G A39G]", "self-cleavage": 0.07}
{"variant": "GGCAGAGCUCAACACAGAGUGGCAGAGUGGCUGUGGCUAGACUGCC", "note": "[C18A A25G]", "self-cleavage": 0.19}
{"variant": "GGCAGAGCUCAACACAGCGUGACAAAGUGGCUGUGGCUAGACUUCC", "note": "[G22A G44U]", "self-cleavage": 0.34}
{"variant": "GGCAGGGCUCAACACAGCGUGGCAAAGUGGGUGUGGCUAGACUGCC", "note": "[A6G C31G]", "self-cleavage": 0.05}
{"variant": "GGCAGAGCUCAACACAGCGUGGCAUAGUGGCUGUGGCUAGACGGCC", "note": "[A25U U43G]", "self-cleavage": 0}
{"variant": "GGCAGAGCUCAACACAGCGUGCCAAAGUGGCUUUGGCUAGACUGCC", "note": "[G22C G33U]", "self-cleavage": 0.06}
{"variant": "GGCAGAGCUCAACACAGCUUGGCAAAGUGGCUGUGGCUAGAUUGCC", "note": "[G19U C42U]", "self-cleavage": 0.3}
{"variant": "GGCCGAGCUCAACACAGCGUGGCAAAGUGGCUGUGGAUAGACUGCC", "note": "[A4C C37A]", "self-cleavage": 0.28}
{"variant": "GGCGGAGCUCAACACAGCGUGGCAAAGUGGCUGUGGGUAGACUGCC", "note": "[A4G C37G]", "self-cleavage": 0.07}
{"variant": "GGCAGAGCUCAACACAGCGUGGCAAAGUGGCUGUUGCCAGACUGCC", "note": "[G35U U38C]", "self-cleavage": 0.09}
{"variant": "GGCAGAGCCCAACACAGCGUGGCUAAGUGGCUGUGGCUAGACUGCC", "note": "[U9C A24U]", "self-cleavage": 0.05}
{"variant": "GGAAGAGCUCAACACAGCGUGGCAAAGUGGCUGAGGCUAGACUGCC", "note": "[C3A U34A]", "self-cleavage": 0.11}
{"variant": "GGCAGCGCUCCACACAGCGUGGCAAAGUGGCUGUGGCUAGACUGCC", "note": "[A6C A11C]", "self-cleavage": 0.05}
{"variant": "GGCAGAGCUCUACACAGCGUGGCAAAGUGGCUGUAGCUAGACUGCC", "note": "[A11U G35A]", "self-cleavage": 0.04}
{"variant": "GGCAGAGCUCAACUCAGCGUGGCAAAGUCGCUGUGGCUAGACUGCC", "note": "[A14U G29C]", "self-cleavage": 0.41}
{"variant": "GGCAGAGCUCAACACAGCGUGGCUAAGUGGCUGUGGCGAGACUGCC", "note": "[A24U U38G]", "self-cleavage": 0.02}
{"variant": "GGCAGAGCUCAACACAGCGUGGCAAACUGGCUGUGGCUAGACAGCC", "note": "[G27C U43A]", "self-cleavage": 0.09}
{"variant": "GACAGAGCUCAACACAGGGUGGCAAAGUGGCUGUGGCUAGACUGCC", "note": "[G2A C18G]", "self-cleavage": 0.46}
{"variant": "GGCAGAGCUCAACACAGCGUGGCGAAGUUGCUGUGGCUAGACUGCC", "note": "[A24G G29U]", "self-cleavage": 1.07}
{"variant": "GGCAGAGCUCAACACAGCGUGGCAAAGUAGCUGUGACUAGACUGCC", "note": "[G29A G36A]", "self-cleavage": 0.11}
{"variant": "GGCAGAGCUCAACACAGCGUGGCAAAGUGGCUGUGGCUAGACAUCC", "note": "[U43A G44U]", "self-cleavage": 0.18}
{"variant": "GGAAGAGCUCAACACAGCGUGGCAAAGAGGCUGUGGCUAGACUGCC", "note": "[C3A U28A]", "self-cleavage": 0.32}
{"variant": "GGCAGAGCUUAACACAGCGUGGCGAAGUGGCUGUGGCUAGACUGCC", "note": "[C10U A24G]", "self-cleavage": 0.35}
{"variant": "GGCAGACCUCAACACAGCGUGGCAAAGUGGCUGUGGCUAGACUCCC", "note": "[G7C G44C]", "self-cleavage": 0.18}
{"variant": "GGCAGAGCUCAACACAGCGUGGCAAAGUGGCUUUGGCUUGACUGCC", "note": "[G33U A39U]", "self-cleavage": 0.15}
{"variant": "GGAAGAGCUCAACACAGCGUGGCAAAGUGGGUGUGGCUAGACUGCC", "note": "[C3A C31G]", "self-cleavage": 0.13}
{"variant": "GGCAGAGCUCAGCACAGCGUGGCAAAGUGGCUGUGGCUUGACUGCC", "note": "[A12G A39U]", "self-cleavage": 0.08}
{"variant": "GGCAGAGCUCAACACAGCGUGGCAAAUUGGCUGUGGCUAGUCUGCC", "note": "[G27U A41U]", "self-cleavage": 0.49}
{"variant": "CGCAGAGUUCAACACAGCGUGGCAAAGUGGCUGUGGCUAGACUGCC", "note": "[G1C C8U]", "self-cleavage": 0.07}
{"variant": "GGCAGAGUUCAACACAGCGUGGCAAAGUGGUUGUGGCUAGACUGCC", "note": "[C8U C31U]", "self-cleavage": 0.14}
{"variant": "GGCAGAGCUCAACACAGCGUGUCAAAGUGGCUGUGGCUAGACUGGC", "note": "[G22U C45G]", "self-cleavage": 0.42}
{"variant": "GGCAGAGCGCAACACAGCGUGGCAAGGUGGCUGUGGCUAGACUGCC", "note": "[U9G A26G]", "self-cleavage": 0.04}
{"variant": "GGCAGAGCUCAACAAAGCGUGGCAAAGUGGCUAUGGCUAGACUGCC", "note": "[C15A G33A]", "self-cleavage": 0.11}
{"variant": "GGCAGAGCUCGACACAGCGUGGCAAAGUGGCUGUGGCUAUACUGCC", "note": "[A11G G40U]", "self-cleavage": 0.03}
{"variant": "GGAAGAGCUCAACACAGCGUGGCAAAGUGGCUGUGGCUAGACUGCA", "note": "[C3A C46A]", "self-cleavage": 0.4}
{"variant": "GGCAGAGCUCAACACAGCGUGGCAAAUUGGCUGUGGCUACACUGCC", "note": "[G27U G40C]", "self-cleavage": 0.16}
{"variant": "UGCAGAGCUCAACACAGCGUGGCAAAGUGGCUGUGGCUAGGCUGCC", "note": "[G1U A41G]", "self-cleavage": 0.1}
{"variant": "GGCAGAGCUCAACACAGCGUGGUAAAGUGGCUGUGGCUUGACUGCC", "note": "[C23U A39U]", "self-cleavage": 0.89}
{"variant": "GGCAGAGCUCAACGCAGCGUGGCAAAGUGGCUGUGGCUAGAUUGCC", "note": "[A14G C42U]", "self-cleavage": 0.21}
{"variant": "GGCAGAGCUCAACACAGCGUGGAAAAAUGGCUGUGGCUAGACUGCC", "note": "[C23A G27A]", "self-cleavage": 0.92}
{"variant": "GGCAGAGCUCAACACAGCGUGGCAAAGUGGCUCUGGCUAGUCUGCC", "note": "[G33C A41U]", "self-cleavage": 0.08}
{"variant": "GGCAGAGCUCAACACAGCGUGGCAAAGUGGCGGUGACUAGACUGCC", "note": "[U32G G36A]", "self-cleavage": 0.09}
{"variant": "GGCAGAGAUCAACACAGCGUGGCAAAGUGGCUGUUGCUAGACUGCC", "note": "[C8A G35U]", "self-cleavage": 0.44}
{"variant": "GGCAGAGCUCAACACUGCGUGGCAAAGUGGCUAUGGCUAGACUGCC", "note": "[A16U G33A]", "self-cleavage": 0.07}
{"variant": "GGCAGAGCUCUACACAGCCUGGCAAAGUGGCUGUGGCUAGACUGCC", "note": "[A11U G19C]", "self-cleavage": 0.1}
{"variant": "GGCAGAGCUCAACACAGCGUUGCAAAGUGGCUGUGGCUAGACUGUC", "note": "[G21U C45U]", "self-cleavage": 1.62}
{"variant": "GGCAGAGCUCAACACAGCGUGGCAAAGUGGCUGUAGGUAGACUGCC", "note": "[G35A C37G]", "self-cleavage": 0.02}
{"variant": "GGCAGAGCUCGACACAGCGUGGCAAAGUGGCUGUGGCUAGACUUCC", "note": "[A11G G44U]", "self-cleavage": 0.01}
{"variant": "GGCAGAGCUCAACACAGCGUGGCAAAGUGGCUGUGGCUAGAUUGAC", "note": "[C42U C45A]", "self-cleavage": 0.14}
{"variant": "GGCUGAGCACAACACAGCGUGGCAAAGUGGCUGUGGCUAGACUGCC", "note": "[A4U U9A]", "self-cleavage": 0.29}
{"variant": "GGCAGAGCUCAACACAGCGUGGCAAAGCGGCUGUGGCUAUACUGCC", "note": "[U28C G40U]", "self-cleavage": 0.17}
{"variant": "GGCAGAGCACAACACAGCGUGGCACAGUGGCUGUGGCUAGACUGCC", "note": "[U9A A25C]", "self-cleavage": 0.07}
{"variant": "GGCAGGGCUCAACACAGCGUGGCAAAGUGGCUGUGGCUAGACUUCC", "note": "[A6G G44U]", "self-cleavage": 0.13}
{"variant": "GGCAGAGCUCAACACAGCGUGGCAAAGUGGGUGUAGCUAGACUGCC", "note": "[C31G G35A]", "self-cleavage": 0.04}
{"variant": "CGCAGAGCUCAACACAGCGUGGCAAAGUGGCUGUGGCGAGACUGCC", "note": "[G1C U38G]", "self-cleavage": 0.01}
